This assay deals with ZIKV Recombinant Envelope Protein (Meridian Life Sciences, Cat # R01635) (Zika virus). Nature of the assay: ELISA on coated recombinant ZIKV E protein, dilutions of the mAb as positive control. (ELISA stands for enzyme-linked immunosorbent assay.)

Regarding “monoclonal anti-Flavivirus group antigen clone D1-4G2-4-15, ascites (Cat# MAB10216, EMD Millipore) (antibody)”, the end point titre came out at 16000.

Values taken from US9833505.
